Test results from patent publication US20080026996A1, “Selective Vpac2 Receptor Reptide Agonists” (ELI LILLY AND COMPANY, priority 2004, published 2008).
Where no end group is shown, it is not given here. [ ]: non-standard residue; d: D form. The star is where a group is joined. Orn = NCCC[C@H](N)C(=O)O; Hexanoyl = CCCCCC(=O)*; Aib = CC(C)(N)C(=O)O

Assays:
human VPAC1 = target: T1, human VPAC1 (Homo sapiens, UniProt P32241); experiment: Filter binding assay, membranes of cells transiently transfected with human VPAC1, 125I-labeled VIP tracer (Table 2); parameters: expressed in transfected cells; conditions: read-out: Human VPAC1 Receptor Binding
T1 sequence (P32241 31-457): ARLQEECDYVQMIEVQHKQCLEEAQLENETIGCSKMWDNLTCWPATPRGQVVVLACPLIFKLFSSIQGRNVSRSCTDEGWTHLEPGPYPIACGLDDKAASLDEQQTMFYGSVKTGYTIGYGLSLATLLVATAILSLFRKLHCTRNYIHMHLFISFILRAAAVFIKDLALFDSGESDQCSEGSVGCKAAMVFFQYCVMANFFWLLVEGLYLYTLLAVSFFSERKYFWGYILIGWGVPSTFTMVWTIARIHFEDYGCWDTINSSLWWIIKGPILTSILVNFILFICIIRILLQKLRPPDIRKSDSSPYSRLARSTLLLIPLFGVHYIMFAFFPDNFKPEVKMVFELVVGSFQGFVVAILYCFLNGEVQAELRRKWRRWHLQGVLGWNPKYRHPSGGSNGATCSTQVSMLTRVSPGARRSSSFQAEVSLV
Procedure: (§1) For this assay, the solutions and equipment include:
(§2) Presoak solution: 0.5% Polyethyleneamine in Aqua dest.
(§3) Buffer for flushing filter plates: 25 mM HEPES pH 7.4
(§4) Blocking buffer: 25 mM HEPES pH 7.4; 0.2% protease free BSA
(§5) Assay buffer: 25 mM HEPES pH 7.4; 0.5% protease free BSA
(§6) Dilution and assay plate: PS-Microplate, U form
(§7) Filtration Plate Multiscreen FB Opaque Plate; […] Type B Glasfiber filter
(§8) In order to prepare the filter plates, aspirate the presoak solution by vacuum filtration. Flush the plates twice with 200 μL flush buffer. Add 200 μL blocking buffer to the filter plate. The filter plate is then incubated […] for 1 hour at room temperature.
(§9) Fill the assay plate with 25 μL assay buffer, 25 μL membranes (2.5 μg) suspended in assay buffer, 25 μL compound (agonist) in assay buffer, and 25 μL tracer (about 40000 cpm) in assay buffer. Incubate the filled plate for 1 hour with shaking.
(§10) Conduct the transfer from assay plate to filter plate. Aspirate the blocking buffer by vacuum filtration and wash two times with flush buffer. Transfer 90 μL from the assay plate to the filter plate. Aspirate the 90 μL transferred from assay plate and wash three times with 200 μL flush buffer. Remove the plastic support. Dry for 1 hour at 60° C. Add 30 μL Microscint. Perform the count.

human VPAC2 = target: T2, human VPAC2 (Homo sapiens, UniProt P41587); experiment: Filter binding assay, membranes of stable VPAC2 cell line, 125I-labeled VIP tracer (Table 2); conditions: read-out: Human VPAC2 Receptor Binding
T2 construct: expressed in transfected cells
T2 sequence (P41587 24-438): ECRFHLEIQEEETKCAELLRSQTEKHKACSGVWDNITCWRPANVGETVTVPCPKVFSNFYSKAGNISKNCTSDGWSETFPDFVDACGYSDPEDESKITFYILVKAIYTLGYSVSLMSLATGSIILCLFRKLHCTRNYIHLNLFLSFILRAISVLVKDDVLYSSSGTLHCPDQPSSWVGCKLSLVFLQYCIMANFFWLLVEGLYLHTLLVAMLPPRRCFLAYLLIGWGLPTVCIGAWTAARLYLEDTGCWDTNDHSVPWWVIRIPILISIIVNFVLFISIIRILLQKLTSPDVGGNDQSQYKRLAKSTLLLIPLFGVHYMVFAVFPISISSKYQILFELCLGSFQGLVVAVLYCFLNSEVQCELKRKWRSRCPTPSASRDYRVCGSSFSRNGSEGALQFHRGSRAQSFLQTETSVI
Procedure: as §1, §2, §3, §4, §5, §6, §7, §8, §9, §10

human VPAC2 receptor = target: T3, human VPAC2 receptor (human, UniProt P41587 24-438); experiment: cell-based or functional assay
T3 sequence (looked up): T2 sequence (P41587 24-438)

Row | Molecule | EC50 cAMP, Alpha Screen (human VPAC2 receptor) | other results
1 | HSDAVFTDNYTRLRRQVAARRYLQSIRNRRYGGPSSGAPPPS [Agonist P71] |  | IC50 (human VPAC1): 73100 pM; IC50 (human VPAC2): 1520 pM
2 | HSDAVFTDNYTRLRKQVAAKKYLQSIKKGGPSSGAPPPS [Agonist P85] |  | IC50 (human VPAC1): 226000 pM; IC50 (human VPAC2): 1700 pM
3 | H-H[dA]DAVFTDNYTRLRKQVAAKKYLQSIKNKRYGGPSSGAPPPS [Agonist P47] |  | IC50 (human VPAC1): 124000 pM; IC50 (human VPAC2): 840 pM
4 | HSDAVFTDNYTRLRKQVAAKKYLQSIKRGGPSSGAPPPS [Agonist P82] |  | IC50 (human VPAC1): 195000 pM; IC50 (human VPAC2): 1900 pM
5 | HSDAVFTDNYTRLRRQVAAKKYLQSIKNKRYGGPSSGAPPPS [Agonist P72] |  | IC50 (human VPAC1): 159000 pM; IC50 (human VPAC2): 1520 pM
6 | [dH]SDAVFTDNYTRLRKQVAAKKYLQSIKNKRYGGPSSGAPPPS [Agonist P84] |  | IC50 (human VPAC1): 469000 pM; IC50 (human VPAC2): 20000 pM
7 | Hexanoyl-HSDAVFTDNYTALR[Aib]QVAA[Aib]KYLQSI[Orn]N[Orn]GGPSSGAPPPS [P366] | 2600 pM | 
8 | Hexanoyl-HSDAVFTDNYTRL[Aib]KQVAA[Aib]KYLQSIKQKGGPSSGAPPPS (ends and bridges not checked) [P293] | 1890 pM | 
9 | Hexanoyl-H[Aib]DAVFTDNYTRLRKQVAAKKYLQSIKNKRYGGPSSGAPPPS (ends and bridges not checked) [P166] | 150 pM | 
10 | Hexanoyl-HSDAVFTDNYTRLR[Aib]QVAA[Aib]KYLQSIKQGGPSSGAPPPS (ends and bridges not checked) [P297] | 360 pM | 
11 | HSDAVFTDNYTRLRKQVAAKKYLQSIKNKRGGT [P7] |  | EC50 cAMP, DiscoveRx (human VPAC2 receptor): 2780 pM
12 | HSDAVFTDNYTRLRKQVAAKKYLQSIKNKKGGT [P8] |  | EC50 cAMP, DiscoveRx (human VPAC2 receptor): 1610 pM
13 | Hexanoyl-HSDAVFTDNYTRL[Aib]KQVAA[Aib]KYLQSIKQGGPSSGAPPPS (ends and bridges not checked) [P296] | 6690 pM | 
14 | HSDAVFTDNYTRLRKQVAAKKYLQSIKNKKGGPSSGAPPPS [P9] |  | EC50 cAMP, DiscoveRx (human VPAC2 receptor): 2410 pM
15 | HSDAVFTDNYTRLRXQVAAXKYLQSIKXGGPSSGAPPPS (N-terminal hexanoyl (C6); Aib at 15, 20; hR at 28) [P354] | 140 pM | 
16 | Hexanoyl-HSDAVFTDNYTRLR[Aib]QVAA[Aib]KYLQSIKPKGGPSSGAPPPS (ends and bridges not checked) [P350] | 130 pM | 
17 | [dH]SDAVFTDNYTRLRKQVAAKKYLQSIKNKRYGGPSSGAPPPS [P84] | 185000 pM | 
18 | Hexanoyl-HSDAVFTDNYTRL[Orn][Aib]QVAA[Aib]KYLQSIKNKRYGGPSSGAPPPS (ends and bridges not checked) [P319] | 260 pM | 

Row | Molecule | EC50 cAMP, Alpha Screen (human VPAC2 receptor) | other results
19 | Hexanoyl-HSDAVFTDNYTRLR[Aib]QVAA[Aib]KYLQSIKKGGPSSGAPPPS (ends and bridges not checked) [P351] | 110 pM | 
20 | HSDAVFTDNYTRLXXQVAAXKYLQSIKNKRYGGPSSGAPPPS (N-terminal hexanoyl (C6); hR at 14; Aib at 15, 20) [P316] | 300 pM | 
21 | HSDAVFTDNYTRLXXQVAAXKYLQSIKNKRYGGPSSGAPPPS (N-terminal hexanoyl (C6); Cit at 14; Aib at 15, 20) [P320] | 490 pM | 
22 | HSDAVWTDNYTRLRKQVAAKKYLQSIKNKRYGGPSSGAPPPS [P67] | 94100 pM | 
23 | Hexanoyl-HSDAVFTDNYTRLRKQVAAKKYLQSIKNKRGGPSSGAPPPS [P123] | 120 pM | 
24 | Hexanoyl-HSDAVFTDNYTRLRKQVAAKKYLQSIKNSRGGPSSGAPPPS [P122] | 140 pM | 
25 | Hexanoyl-HSDAVFTDNYTRLR[Aib]QVAA[Aib]KYLQSIKQKGGPSSGAPPPS (ends and bridges not checked) [P294] | 240 pM | 
26 | Hexanoyl-HSDAVFTDNYT[Aib]LR[Aib]QVAA[Aib]KYLQSIKNKRYGGPSSGAPPPS (ends and bridges not checked) [P345] | 1170 pM | 
27 | Hexanoyl-HSDAVFTDNYTRLR[Aib]QVAA[Aib]KYLQSIK[Aib]GGPSSGAPPPS (ends and bridges not checked) [P355] | 100 pM | 
28 | Hexanoyl-HSDAVFTDNYTRLR[Aib]QVAAK[Aib]YLQSIKQGGPSSGAPPPS (ends and bridges not checked) [P298] | 500 pM | 
29 | Hexanoyl-HSDAVFTDNYTRLR[Aib]QVAA[Aib]KYLQSI[dK][dK]GGPSSGAPPPS (ends and bridges not checked) [P353] | 180 pM | 
30 | HSDAVFTDNYTXLRXQLAAXKYLQSIXNXGGPSSGAPPPS (N-terminal hexanoyl (C6); Orn at 12, 27, 29; Aib at 15, 20) [P364] | 110 pM | 
31 | HSDAVFTDNYTXLRXQIAAXKYLQSIXNXGGPSSGAPPPS (N-terminal hexanoyl (C6); Orn at 12, 27, 29; Aib at 15, 20) [P365] | 130 pM | 
32 | Hexanoyl-HSDAVFTDNYTRLR[Aib]QVAAK[Aib]YLQSIKQKGGPSSGAPPPS (ends and bridges not checked) [P295] | 390 pM | 
33 | Hexanoyl-HSDAVFTDNYTRLR[Aib]QVAA[Aib]KYLQSIK[Aib]KGGPSSGAPPPS (ends and bridges not checked) [P349] | 80 pM | 
34 | Hexanoyl-HSDAVFTDNYTRLR[Orn]QVAAKKYLQSIKNKRYGGPSSGAPPPS (ends and bridges not checked) [P307] | 320 pM | 
35 | Hexanoyl-HSDAVFTDNYTRLRKQVAAQKYLNQLKKGGPSSGAPPPS [P144] | 320 pM | 
36 | Hexanoyl-HSDAVFTDNYTRLRKQVAAKKYLQ[Aib]IKNKRYGGPSSGAPPPS (ends and bridges not checked) [P187] | 400 pM | 
